Data reported in the DeepSol protein solubility set.

Experiment: soluble on expression in E. coli; label from the status in PepcDB or PDB records

MGSDKIHHHHHHMHEHFMTPPPLSVTGKPAIRIGCAGWGIPPQHAALFPPGGGHLERYARLFDTVEIDSSFYRPHQHKTYVRWADTVPDSFRFWVKTPREITHQRRLLECEDSLLRFLEEISGLGYKLGGILVQLPPSLALDVPSAQAFFTLLRQHYAGVAACEPRHASWFSMQGEKLLQDFRLARVAADPAKFPTAGTPGGDTGFSYYRLHGAPEIYYSSYPEAYLRQLAHTLQASIGPAWCIFDNTARGGATANAWDIMRLLDKTMHQD
soluble on expression in E. coli: not soluble

MGSDKIHHHHHHMPSVKIGIIGAGSAVFSLRLVSDLCKTPGLSGSTVTLMDIDEERLDAILTIAKKYVEEVGADLKFEKTMNLDDVIIDADFVINTAMVGGHTYLEKVRQIGEKYGYYRGIDAQEFNMVSDYYTFSNYNQLKYFVDIARKIEKLSPKAWYLQAANPIFEGTTLVTRTVPIKAVGFCHGHYGVMEIVEKLGLEEEKVDWQVAGVNHGIWLNRFRYNGGNAYPLLDKWIEEKSKDWKPENPFNDQLSPAAIDMYRFYGVMPIGDTVRNSSWRYHRDLETKKKWYGEPWGGADSEIGWKWYQDTLGKVTEITKKVAKFIKENPSVRLSDLGSVLGKDLSEKQFVLEVEKILDPERKSGEQHIPFIDALLNDNKARFVVNIPNKGIIHGIDDDVVVEVPALVDKNGIHPEKIEPPLPDRVVKYYLRPRIMRMEMALEAFLTGDIRIIKELLYRDPRTKSDEQVEKVIEEILALPENEEMRKHYLKR
soluble on expression in E. coli: not soluble

HGTELPSPPSVWFEAEFFHHILHWTPIPQQSESTCYEVALLRYGIESWNSISQCSQTLSYDLTAVTLDLYHSNGYRARVRAVDGSRHSQWTVTNTRFSVDEVTLTVGSVNLEIHNGFILGKIQLPRPKMAPAQDTYESIFSHFREYEIAIRKVPGQFTFTHKKVKHEQFSLLTSGEVGEFCVQVKPSVASRSNKGMWSKEECISLTRQYFTVTN
soluble on expression in E. coli: soluble

MENNTNQENSDALENVSFACIRPEILYFGTPVVLISTIDREGKVNLAPISSAWALGYSVVMGIGTESKTMENLRETGECTLNFPEGALWESVERLAPLTGKYPVPQDKADKFRFESNKFGVAGLTPCDSEVVKPPRVLECRLQMEACVKSVRRISEPDVQAGIVEVKVVRVHARNDLIIDGKYIDPKQWKPLIYSFRHYFTLGCDLGKTFRSKI
soluble on expression in E. coli: not soluble

MSLKLLIVENDRDTAAALTTSLVAQQFTVDTASDSRSALELAEATEYDLIVLDVMLPDENGIRLCRQLRTQNQQEPILLLTRKVNPADRIAGFEAGADDYITKPYELSELLARIRALLRRGSTVLTKVLCWGQLQLDPNNCEVMCQGKGLHLTPKEYKLLELFLRHPRRIFDRRTLLDRICSIDECPGEEAITTQIRGLRRKLQMAGLNSDPIETLYGLGYRLKSEGHHHHHH
soluble on expression in E. coli: not soluble

MNAEIASEIVAEIPLWSQELPDTQEIIASLISSNLFPLIYTEQDYLEIANASAGLYISDIIHCLTDIRKNHDLGNSSEIAKLLLAKKIQLLNRLYDIEFLPPPKVQLGGLELMQQSFKKFKRLLTPRAKQYNLRVPKGIMLEHHHHHH
soluble on expression in E. coli: not soluble

MGSDKIHHHHHHMLKITFLGTNGWFDSNTGNTPSVLIEHRNYYIILDAGNGISKLRNCISSDKPVYLFLSHFHLDHISGLHTLPLNKFSKGLYIIVPKGGTKLINQFVNVPFTVPIKKLPFKTEIIEACNKLNFLPFKATFLPLVHSSYVLGIRLEIDSKTISYCTDTSYCFNAITLAKNADLLISECSMKPLGTDDASVHLNPELASKIAKEAGAKKLMLIHFDAAKYLTLDDRKKAELAAKTIFNNSYASYDDLELQV
soluble on expression in E. coli: not soluble

MVRVKICGITNLEDALFSVESGADAVGFVFYPKSKRYISPEDARRISVELPPFVFRVGVFVNEEPEKILDVASYVQLNAVQLHGEEPIELCRKIAERILVIKAVGVSNERDMERALNYREFPILLDTKTPEYGGSGKTFDWSLILPYRDRFRYLVLSGGLNPENVRSAIDVVRPFAVDVSSGVEAFPGKKDHDSIKMFIKNAKGL
soluble on expression in E. coli: soluble

SNAMQNRWAETKFDSDIDEVVYGSRLIGSDPDLVLHGGGNTSVKTTERDHAGRIISVLRVKNSGSNLGTIDSRGFTGIRMDDALAAAKIDKMTDEAMVDYLKKSMVNPSEPSPSVETFLHAFLPYKFVMHSHADAILSITNTDLPSDQIAKILGNVVVLPYIPPGFTLAKEVMNCFKKGIDGIVLRKHGLLTFGDTGKEAYDRHINIVSRAENFIREKTDGK
soluble on expression in E. coli: soluble

SLYENDYVKKTQVWPSGGQMTVKNLSANYIDGGNTVLENISFSLSPGQRVGLLGRTGSGKSTLLSAFLRLLSTQGDIQIDGVSWQTIPLEKWRKAFGVIPQKVFIFSGSIRKNLDPYGKWSDEELLKVTEEVGLKLIIDQFPGQLDFVLLDGGCVLSHGHKQLVCLARSVLSKAKILLLDEPSAHLDPITFQIIRKTLKHAFADCTVILSEARLEAMLECDRFLVIEDNTVRQYDSIQKLVNEKSDFKQAISHSD
soluble on expression in E. coli: soluble

MGHHHHHHSHYGSLNPKAITISQYGEPFVVGTSRVVEIIRKLRERFGEVRIDIQTNGTLLEPEILGSEADIVMISLDAGSRESYAEITGKDFFERVVKNIEKMSEHTYTVVRTVFMPGINDEELERIAEIASQADELFLQPLSIYRENTELLKRLDVERAESLGDYLQTAYRLSEIASVRIPGCLLLNMRWFLREFEIGEL
soluble on expression in E. coli: not soluble

MGSDKIHHHHHHVREVSKEKGKIDLVSGAASTPLTNDKCSPTGFHWTYDTYALANGTGNAVVKNGGKTWFFLTADYAFGHNLQAQTEKVVKANGGEVKGAVKHPFPNSDFSSFLLQAQASGAQIIGLANAGADTINAIKQAKEFGITQAGQQLAGLLVFITDIHSLGLETAQGMMLTTGFYWDMDDQTRAWSKRWSEKMGNGKMPSMVHAGTYSQVLHYLRAAAAAKTDEGIKVADEMRKLPINDFFAKNGKIRADGRMVHDMYLAQVKKPSESKGPWDYYKIVRTIPGDEAYQPLSESTCSLVKK
soluble on expression in E. coli: not soluble

SNNVLPTWSLDSNGEMRSRLSLSEVLDSGDLMKFAVDKTGCQFLEKAVKGSLTSYQKFQLFEQVIGRKDDFLKLSTNIFGNYLVQSVIGISLATNDDGYTKRQEKLKNFISSQMTDMCLDKFACRVIQSSLQNMDLSLACKLVQALPRDARLIAICVDQNANHVIQKVVAVIPLKNWEFIVDFVATPEHLRQICSDKYGCRVVQTIIEKLTADSMNVDLTSAAQNLRERALQRLMTSVTNRCQELATNEYANYIIQHIVSNDDLAVYRECIIEKCLMRNLLSLSQEKFASHVVEKAFLHAPLELLAEMMDEIFDGYIPHPDTGKDALDIMMFHQFGNYVVQCMLTICCDAVSGRRQTKEGGYDHAISFQDWLKKLHSRVTKERHRLSRFSSGKKMIETLANLRSTHPIYELQ
soluble on expression in E. coli: soluble

MSHIIDRRLNGKNKSAVNRERFLRRFKAQIKEAVSKAIKGRSITDIESGEKVSIPVKDISEPSFHHGKGGVWENVHPGNEEFVKGDRIPRPQGGAGGGGSKASQDGEGEDDFVFQLSREEFMNVFFDDLALPNLVKTQLMGIEEMKTVRAGYTNDGTPTNINIVRSPRGALARRVAMAAPTLSSIDEAEEELDTLIESDDDNALEVRDRRQRIHQMKERLASIPWIDPFDLRYNNRVKQPKPTSQAVMFCIMDVSGSMDEQKKDMAKRFFILLYMFLQRNYEKIEVVFIRHHTSAVEVNEQDFFHSRESGGTVVSSALNLMSDVIRKRYASSEWNIYAAQASDGDNWDSDSANCGRILEENLLPYCQYFAYIEITEGEPQNLWYEYLKVKAQCPQFAMQKIRSASDIYPVFRELFKRQPANGRVSALEHHHHHH
soluble on expression in E. coli: soluble

MGSDKIHHHHHHMLTSGLYQSKNQCCGCELCSCVCPKNLIRMQPDDEGFLYPYIETDEGCVHCNKCIKICPMKSSNRNDIVLKASFGGQTRDIDGTRYSSSGGYATAISKQFILEKGVVVGVRYSSDFSKSEYAIAETIEELEQFRTSKYIQAEKGGIYQTIRNIKRKKILFIGLPCEVSALYNYWGRNTDNLYSISLVCHGPTTPKVQNLFASKLKENNNSQIKYFSVRYKESGWKPYYIYADFENGKHHQELFKGSSYEIAFQYLKRPSCSSCRYKLGDQEFGLVSDLTLGDFHAVEKNMLQYSPWGGVSQASVQSEKGEYLIDLARRQCNVEFIPEKYITKYNYAFHHPVAQKTGRESFKRILLREGLDCAAKSLLVQIPTCYINAKRRIISFLYNVKSYLISK
soluble on expression in E. coli: not soluble

MALMTNKTRALLIGGHGKVALLATPMLIDASVQVTSMYRNPDHRSEIEALGATTLERDVTTLSVEDWADLLKDFDVVVWSAGNGGKNGADATYAIDRDAAIASIDGAASLGEKAPRYIMVSYIGSSTHTIDPSASFYPYAESKKAADEHLSSTNLDYLILAPAALTLDEVNGVEVIADTNEAAAGRTTSRVLVAEVITEFVVRDFPQTRVLPFVDGESPLEHHHHHH
soluble on expression in E. coli: soluble

EHQAILSKRLESVESDIRLEQNTMDMTRIDARKMQMTGDLIMKNSVTVGGIAGASGQYAATQERSEQQISQVNNRVASTASDEARESSRKSTSLIQEMLKTMESINQSKASALAAIAGNIRA
soluble on expression in E. coli: not soluble

MQRLSPGEFKTLISKERKSHFITPFALVYKTFCDLGYDQKNSDYFLNNPSEYIIAMRKNCWKEFEPFEKEFTTRMLSYLIDEERIKDMSPYDAIRDFTMEYPTHIYDLALSNTQSRRSRAGKEFESILELLMMGAGIPVDVQGAIGKSFFQKNQIGKLVDLVMPGVVQYTSNKRNTMLISAKTTLRERWQEVPEEVNRTGIREMYLATLDDSFSEETINILYEANVVVVTTVENKNFKYKNNNRVLTFEDMLQSAMELSRKWNNVSYTDSEKEEIQQSILKQIEKYSDFPYVVNYYRNRLSALFD
soluble on expression in E. coli: soluble

MHHHHHHSSGRENLYFQGNTTKHIILVRHGQYERRYKDDENSKRLTKEGCKQADITGKKLKDILNNKKVSVIYHSDMIRAKETANIISKYFPDANLINDPNLNEGTPYLPDPLPRHSKFDAQKIKEDNKRINKAYETYFYKPSGDEDEYQLVICHGNVIRYFLCRALQIPLFAWLRFSSYNCGITWLVLDDEGSVVLREFGSVSHLPFESVTYF
soluble on expression in E. coli: soluble

MRQHRPALELSRLPELLSRIDGYKGQPVTRLAVMLNLLVFIRSSELRYARWSEIDIDNSMWTIPAEREPLPGVKFSHRGSKMRTPHLVPLSKQVVAILAELQTWAGENGLIFTGAHDPRKPISENTVNKALRVMGYDTTQEVCGHGFRAMACSALIESGLWSRDAVERQMSHQELEHHHHHH
soluble on expression in E. coli: not soluble

MSSDIDELRREIDIVDVISEYLNLEKVGSNYRTNCPFHPDDTPSFYVSPSKQIFKCFGCGVGGDAIKFVSLYEDISYFEAALELAKRYGKKLDLEKISKDEKVYVALDRVCDFYRESLLKNREASEYVKSRGIDPKVARKFDLGYAPSSEALVKVLKENDLLEAYLETKNLLSPTKGVYRDLFLRRVVIPIKDPRGRVIGFGGRRIVEDKSPKYINSPDSRVFKKGENLFGLYEAKEYIKEEGFAILVEGYFDLLRLFSEGIRNVVAPLGTALTQNQANLLSKFTKKVYILYDGDDAGRKAMKSAIPLLLSAGVEVYPVYLPEGYDPDEFIKEFGKEELRRLINSSGELFETLIKTARENLEEKTREFRYYLGFISDGVRRFALASEFHTKYKVPMEILLMKIEKNSQEKEIKLSFKEKIFLKGLIELKPKIDLEVLNLSPELKELAVNALNGEEHLLPKEVLEYQVDNLEKLFNNILRDLQKSGKKRKKRGLKNVNT
soluble on expression in E. coli: soluble

RDIAQRITGATLRAPPCHEEVREAIRDAVGRTLVSNRKVGVAVSGGLDSTILCSELDSLGITDLDLISIQALGSQDGITDLSALELKGEAWKSWRLTASRFDPATYWRDLRRAIAILGEPTQMTSAPLYLGLAEKAAEAGVVVLLLGEGADELFCGYRSYLPMLSGWSLRDFLFRPLERAVCQRLFSGEIQARCAAALDVFTRALPEGDQWTQLRAAEMSHNLEPLLLRADHTLMRCSIEGRTPFLHGDVADLAFSLPIDSLLSPNQTKVFLRQAYFRDLPAHFSTEIKKPFRAPVATWFVGPLKAWLTEEFSRQEAVFACLGIEPGGLEHVLTKTAQGHARMAKVAFCLLTLGFWIDWL
soluble on expression in E. coli: not soluble
